Reference: the supplement of paper PMC9170038

Test system: K4 kissing-loop RNA reporter
Test: apparent KD of K4 kissing-loop reporter; higher = weaker reporter binding
Settings: Eterna round: R107; input ligand: none
Procedure: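 RNA-MaP round R107: designed RNA switches with theophylline, tryptophan, arginine or FMN aptamers are transcribed on-chip within common flanks. They are titrated with a labelled K4 kissing-loop RNA reporter in RNA-MaP buffer (100 mM Tris pH 7.5, 80 mM KCl, 4 mM MgCl2), without ligand or with the indicated ligand. Median apparent KD per design.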
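Further: bound reporter read as fluorescence of individual clusters on recovered sequencing chips by microscopy, with normalized cluster intensities fitted with a binding model.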

Row | Sequence | apparent KD of K4 kissing-loop reporter [µM]
1 | GUUAUCACGCGAAGGAGCGCGGAGCGAUAACGCAGUGAUGUUGCGUUAAACGUAAUAUAAUCGCAGGUAGGUCGCGCGUGAUACC [Arg B Ex t6] | 0.0942
2 | ACAUUUUCAAGUGAUACCAGACAUUUUUUUUUCUUUAUUUAUGCUAAGUGAUGUUUAGCAGUCCCUUGGCAGCACUAUUUAACUA [JR_Nu_SSTheophyB_Sub031] | 0.0932
3 | CGCUGGGCGAGUGAUGUUCGCUCACGUGAUACCAGUGCCAUCCAACACCCUUGGCAGCACGCGGGCAGUGAUGUUGUCCUUGUAU [Exclusion Theophylline A GF6] | 0.127
4 | AAUUGGCAGUGAUGUUGUCAAGGACAUACGAAGGAUAUAAGUGAAGUUAGAAGGUCGACCAUCACUUCUUUGCCAUUUGCAUGAC [theeternabot_exclusion_KL_FMN_A_20] | 0.207
5 | CAUCCUACACCUCAAGCAGUGAUGUUGCUACGAGGACCGGUACGGCCGCCACUCGUUUAAGCAUGGAUAUUAGCUGUGCUGACUA [theeternabot_exclusion_KL_Trp_A_16] | 0.461
6 | UGACUGGACUGAAGGAGCGCUGAACUCCUAGUGAUGUUAGGAUAACGAGACAAAGUCUCGCGGCAGGUAGGUCGCAGUCUAGUCU | 0.109
7 | CGCGGCCGGCCGGAUACCAGUGACCCGCUGGCAACCGCGGGCCCAGAGUGAUGUUCGGGACACCCUUGGCAGCCGCCUGGGCGUG [#2 Same State - Theophylline B Attempt #4 (HarryS)] | 0.483
8 | ACGUAGUUCUAGGAUACCAGCCAAGGAGCCCAGGACAAAAGUCCUGGCGCCAGUGAUGUUGGCCCUUGGCAGCCUAGAACUACGA [Omei KL Theo B Exc B v4] | 0.157
9 | GCUACUGCUGAAGGAUAUAUCAAUAGAGUGAUGUUCUAUGUCGGUAGCCCGAAAGGGCUACCGACGGUAGAAGGUCAGCAGUAGC | 1.56
10 | AACUGGGUUCGUGAUACCAGCUCACACAUGAGUGAUGUUCAUGUAGUGGGUAAAAUGUGGAGCCCUUGGCAGCACUGUGACCACG [XTheo-B1] | 0.0812
11 | UACUAUAGUGAUGUUAUAGAUAAACCAGAUACCAGUGUAACAUAACACCCUUGGCAGCUGAUGAGGGAAAAUAUAAAUGUGUAUU [AstrosSSTHe-A#4newdesignED10.09] | 0.198
12 | GUUGACUACCAGAGGUGAUGUAUAGUAUCGCGAGGACCGGUACGGCCGCCACUCGUGAAGAGAAAGGAGUGAUGUUCCGUAAUGG [C9] | 0.322
13 | UAAUAGUAGACCAGGUCUACUAUUAGGGAUACCAGCCUCGGUCGAGGCCCUUGGCAGCCCAGCGGGUCCAGUGAUGUUGGAUGUC [Beoratri] | 0.371
14 | UUGACCUACUCAGGAUAUCCGCAGUGAUGUUGCGGUUGGCCUGAGCGACAUGAAAAUCUUACUACAGGAGAAGGGAGAGGGUUAC [Anraerce] | 0.134
15 | UUAGGAGUGGAAGGAUAUCCUGGUGUGGGUGAUGUUAGUGAUGUUGAAGGUGCAGUGAUGUUGCGCGGAGAAGGUCCGGUGUUGA [BDazzled - #6 - Exc. FMN B] | 0.367
16 | UGACUGGACUGAAGGAGCGUUGAAGGAGCGUAAGCAGUGAUGUUGCUUACAGGUAGGUCGCAGCAGGUAGGUCGCAGUCUAGUCU [ArgBS 28 #DoubleAptamer #SwitchBubble] | 0.122

Same assay, conditions: Eterna round: R107; input ligand: theophylline 20 uM

Row | Sequence | apparent KD of K4 kissing-loop reporter [µM]
17 | AGACUACCACACUGUCAAUAGACAGUGGACUAGGAUAUGCUGAUAAGCAGAAGGAGUGAUGUUCCGAGGUAGUCAAUAAAAUAAU [FmnAX 13 G28+G66] | 0.401
18 | CCCUCACGAGUGAUGUUCGUAGGGUACAGUCAGGAUAUCAUGCGGUUGAGAAGGGACAGAGAGGGCGGCGGCGGGUUGCUCUUCG [Xeaan] | 0.271
19 | ACACGGGUCUCGGCCGCCACUCUGCCUACCACCAUUAGUGCCAGUGAUGUUGGCAGGUGAGGGCUGAGGACCGGGAGAUCCAUAC [Zaremais] | 0.122
20 | UAGCGUAUUGAAGGAUAUUGCCUAGGAGUGAUGUUUGUAGAAAAUUUCCAACGGAACGAAUGUUAGCAAGAAGGUCAAUGGCCUU [theeternabot_exclusion_KL_FMN_B_40] | 0.456
21 | AGCUCAGAGUGACUUGAUAAGAGUCACAAACGAGGACCGGUACGGCCGCCACUCGAAAUAACGAGAGUGAUGUUCUCGCUGAGCA [FiskerMod 5 - Jieux - Same State Tryptophan A] | 0.843
22 | GAGGUUUACGUAGGAUAUCGAUAAUGAGUAAAUGGAGUGAUGUUCCGAAAUUGAAUAAGAGAUGAGCGAGAAGGGCGGAUUAAGC [FMN B Same State; Euporia Solution] | 0.0665
23 | GUGUCCUAGUCGGCCGCCACUGGUACGAAAAUAGAAGGACGUGUGCACAUGAGUGAUGUUCAUGUCAGGACCGGGACUAGGGUGU [KL-SSTryp-B6 Brourdwalk2] | 0.332
24 | UGUCAUUGGUCUGAUACCAGCUUGAUCGGUAAACGAUCUACUGGAGUGAUGUUCCUAAAUAGCCCUUGGCAGCAGACCGAUGACU [TheoBS 4 #SwitchBubble #StaticStem] | 0.123
25 | GGGAGUAGUGCGGCCGCCACUGAGAAAGAAGAAGAAUAUAGUGAUGUUAUAUAGGAAAUAAAGAACAGGACCGGGCAUUAGAUUU [SSTRyptB.N] | 0.21
26 | ACCGGACAAGAGGUGUCAGUGAUGUUGGCGCGAGGACCGGUACGGCCGCCACUCGAGGAAAGCGGUCACGCCCUGGUAGGACUGG [theeternabot_exclusion_KL_Trp_A_22] | 0.128
27 | AAGUGCCUCAAGAGGCAGUAUCUGCCUCAACGAGGACCGGUACGGCCGCCACUCGAAUAAUAGAGUGAUGUUCUAAGAGGCACAA [AK1.5 SS Tryptophan A] | 0.261
28 | AGAACUGUCUGAGAUACCAGCCAAGGAGUGAUGUUCCGGCUCGACGAAACGUCGAGCAAUGGCCCUUGGCAGCUCAGACAGUUCA [Omei KL Theo B SS A v3] | 0.398
29 | GCGGCCCAGACGGAUACCAGUGACCCGCUGGGAACCGCGGGCCCAGAGUGAUGUUCGGGACACCCUUGGCAGCCGCCUGGGUCGC [#2 Same State - Theophylline B Attempt #19 (HarryS)] | 0.606
30 | AAGCAUUCUUCGGAUUGCAGACCCGCUGAGGAGGAUAUGACGAAAGUCAGAAGGUUUCAGUGAUGUUGAGGCCUCCUCAAUGGUC [whbob_Ex_FMNA__2th183] | 0.255
31 | GCAGUGAUGUUGCUCGUUUCAUCGCGAGAUACCAGACCAUAUGAGGUCCCUUGGCAGCUCUAGUCAUCUGGUCCUUUUGCGUACU [theeternabot_exclusion_KL_Theo_A_2] | 0.722
32 | GUUAUCACGCGAAGGAGCGCGGAGCGAUAACGCAGUGAUGUUGCGUUAAACGUAAUAUAAUCGCAGGUAGGUCGCGCGUGAUACC [Arg B Ex t6] | 0.0821
33 | ACAUUUUCAAGUGAUACCAGACAUUUUUUUUUCUUUAUUUAUGCUAAGUGAUGUUUAGCAGUCCCUUGGCAGCACUAUUUAACUA [JR_Nu_SSTheophyB_Sub031] | 0.169
34 | CGCUGGGCGAGUGAUGUUCGCUCACGUGAUACCAGUGCCAUCCAACACCCUUGGCAGCACGCGGGCAGUGAUGUUGUCCUUGUAU [Exclusion Theophylline A GF6] | 0.109
35 | AAUUGGCAGUGAUGUUGUCAAGGACAUACGAAGGAUAUAAGUGAAGUUAGAAGGUCGACCAUCACUUCUUUGCCAUUUGCAUGAC [theeternabot_exclusion_KL_FMN_A_20] | 0.243
36 | CAUCCUACACCUCAAGCAGUGAUGUUGCUACGAGGACCGGUACGGCCGCCACUCGUUUAAGCAUGGAUAUUAGCUGUGCUGACUA [theeternabot_exclusion_KL_Trp_A_16] | 0.576
37 | UGACUGGACUGAAGGAGCGCUGAACUCCUAGUGAUGUUAGGAUAACGAGACAAAGUCUCGCGGCAGGUAGGUCGCAGUCUAGUCU | 0.0993
38 | CGCGGCCGGCCGGAUACCAGUGACCCGCUGGCAACCGCGGGCCCAGAGUGAUGUUCGGGACACCCUUGGCAGCCGCCUGGGCGUG [#2 Same State - Theophylline B Attempt #4 (HarryS)] | 0.694
39 | ACGUAGUUCUAGGAUACCAGCCAAGGAGCCCAGGACAAAAGUCCUGGCGCCAGUGAUGUUGGCCCUUGGCAGCCUAGAACUACGA [Omei KL Theo B Exc B v4] | 0.136
